In experiment [1] the target is recombinant human IGFBP-3 (human) (UniProt P17936). As to the kind of experiment: BIAcore. (In general: Surface plasmon resonance follows binding to a sensor surface in real time, without labels.)
The next experiment deals with T1, human IGFBP-1 (human) (UniProt P08833).
T1 sequence (looked up): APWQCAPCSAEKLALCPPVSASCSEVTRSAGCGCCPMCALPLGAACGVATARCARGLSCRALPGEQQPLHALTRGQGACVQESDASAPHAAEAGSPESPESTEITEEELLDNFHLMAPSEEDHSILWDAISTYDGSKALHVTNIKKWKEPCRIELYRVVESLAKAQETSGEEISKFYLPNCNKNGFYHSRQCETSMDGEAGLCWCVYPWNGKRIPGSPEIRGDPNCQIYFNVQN
As to the kind of experiment: BIAcore.

Experiment [2] deals with IGF-I G19A (G1S-A70V background) displayed on phage (human; bacteriophage M13). The experiment in a line: competitive phage ELISA, soluble IGFBP-3 vs coated IGFBP-3. (ELISA stands for enzyme-linked immunosorbent assay.)
Experiment [3] deals with IGF-I R37A (G1S-A70V background) displayed on phage (human; bacteriophage M13). The experiment is described as above.
The target of experiment [4] is Ala(1-3)-IGF-I, triple alanine mutant of the first three N-terminal amino acids, displayed on phage (human; bacteriophage M13). The description is as above.
The target in experiment [5] is IGF-I I43A (G1S-A70V background) displayed on phage (human; bacteriophage M13). The experiment is described as above.
The target in experiment [6] is IGF-I F25A (G1S-A70V background) displayed on phage (human; bacteriophage M13). The experiment is described as above.
In experiment [7] the target is IGF-I G42A (G1S-A70V background) displayed on phage (human; bacteriophage M13). Described as above.
In experiment [8] the target is IGF-I F23A (G1S-A70V background) displayed on phage (human; bacteriophage M13). The experiment is described as above.
The target in experiment [9] is IGF-I V44A (G1S-A70V background) displayed on phage (human; bacteriophage M13). The description is as above.
For experiment [10], the target named is IGF-I R21A (G1S-A70V background) displayed on phage (human; bacteriophage M13). Described as above.
The target in experiment [11] is IGF-I Q40A (G1S-A70V background) displayed on phage (human; bacteriophage M13). The description is as above.
The target of experiment [12] is IGF-I G22A (G1S-A70V background) displayed on phage (human; bacteriophage M13). The description is as above.
In experiment [13] the target is IGF-I Y24A (G1S-A70V background) displayed on phage (human; bacteriophage M13). The description is as above.
For experiment [14], the target named is IGF-I D20A (G1S-A70V background) displayed on phage (human; bacteriophage M13). Described as above.
Experiment [15] deals with IGF-I N26A (G1S-A70V background) displayed on phage (human; bacteriophage M13). The experiment is described as above.
In experiment [16] the target is IGF-I S34A (G1S-A70V background) displayed on phage (human; bacteriophage M13). The description is as above.
For experiment [17], the target named is IGF-I S35A (G1S-A70V background) displayed on phage (human; bacteriophage M13). The experiment is described as above.
Experiment [18] has as its target IGF-I T41A (G1S-A70V background) displayed on phage (human; bacteriophage M13). The experiment is described as above.
Experiment [19] addresses T2, IGF-I F49A (G1S-A70V background) displayed on phage (human; bacteriophage M13).
T2 chain: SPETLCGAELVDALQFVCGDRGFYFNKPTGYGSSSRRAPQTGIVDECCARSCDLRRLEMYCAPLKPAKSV
As to the kind of experiment: competitive phage ELISA, soluble IGFBP-1 vs coated IGFBP-1. Conditions: remark: other sources report otherwise.

Consider nine molecules from patent publication EP1506972A1 (Genentech Inc., dated 2005).

Broadly, the IC50 is the midpoint of a concentration-inhibition curve. A higher IC50 goes with lower potency.

recombinant human IGFBP-3 (human), sequence (P17936 28-291 limits assumed): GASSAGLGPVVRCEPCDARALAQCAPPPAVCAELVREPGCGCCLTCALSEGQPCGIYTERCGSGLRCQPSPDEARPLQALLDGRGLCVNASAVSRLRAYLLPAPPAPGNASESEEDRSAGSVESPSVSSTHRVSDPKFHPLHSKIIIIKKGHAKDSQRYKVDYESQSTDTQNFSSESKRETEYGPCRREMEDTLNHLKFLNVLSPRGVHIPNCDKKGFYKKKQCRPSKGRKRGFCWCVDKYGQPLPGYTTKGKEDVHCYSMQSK

In the case of “F16A IGF-I (soluble, purified) (from UniProt P05019 49-118) (ligand)”, the figures for the KD(mutant)/KD(IGF-I) (in [1]; in the experiment with human IGFBP-1 (human)) were 6.9 fold and 25 fold, respectively.
Regarding “R36A IGF-I (soluble, purified) (from UniProt P05019 49-118) (ligand)”, the KD(mutant)/KD(IGF-I) in experiment [1] turned out to be 0.8 fold; in the experiment with human IGFBP-1 (human) it was 1.1 fold.
Turning to “T4A IGF-I (soluble, purified) (from UniProt P05019 49-118) (ligand)”, the KD(mutant)/KD(IGF-I) in [1] is 2.1 fold; in the experiment with human IGFBP-1 (human), 6.9 fold.
For “G1S/A70V IGF-I (soluble, purified) (from UniProt P05019 50-117) (ligand)”, in that order: 1.5 fold and 1.1 fold.
On to “recombinant human IGFBP-3 (from UniProt P17936 28-291)”, for which the concentration for half-maximal inhibition (IC50) in [2] stood at 0.9 nM; in experiment [3], 0.75 nM; in [4] it was 1.12 nM; in [5], 1.17 nM; in experiment [6] it was 3.69 nM; in experiment [7] it was 0.53 nM. For the same molecule, the IC50 in experiment [8] worked out at 2.18 nM; in [9], 1.03 nM; in experiment [10], 0.58 nM; in experiment [11], 0.56 nM; in experiment [12] it was 2.07 nM; in experiment [13], 2.53 nM. The 50% inhibitory concentration (IC50) was 1.11 nM in experiment [14]; 0.9 nM in experiment [15]; 1.65 nM in experiment [16]; 0.47 nM in [17]; 0.43 nM in experiment [18]. The relative IC50 (IC50mut/IC50 G1S-A70V) in experiment [2] was found to be 1.2 fold; in [3], 1 fold; in experiment [4], 1.5 fold; in experiment [5] it was 1.6 fold; in experiment [6], 4.9 fold; in experiment [7] it was 0.7 fold. Moreover, the relative IC50 (IC50mut/IC50 G1S-A70V) in experiment [8] came to 2.9 fold; in experiment [9] it was 1.4 fold; in experiment [10], 0.8 fold; in experiment [11] it was 0.7 fold; in experiment [12], 2.8 fold; in experiment [13], 3.4 fold. Moreover, the relative IC50 (IC50mut/IC50 G1S-A70V) came out at 1.5 fold in experiment [14]; 1.2 fold in [15]; 2.2 fold in experiment [16]; 0.6 fold in experiment [17]; 0.6 fold in [18].
With “P39A IGF-I (soluble, purified) (from UniProt P05019 49-118) (ligand)”, the figures for the KD(mutant)/KD(IGF-I) (in experiment [1]; with human IGFBP-1 (human)) were 1.5 fold and 1 fold, respectively.
As for “F25A IGF-I (soluble, purified) (from UniProt P05019 49-118) (ligand)”, the KD(mutant)/KD(IGF-I) in [1] came to 5.1 fold; with human IGFBP-1 (human), 25 fold.
For “V11A IGF-I (soluble, purified) (from UniProt P05019 49-118) (ligand)”, in that order: 4.5 fold and 5.1 fold.

B1: human IGFBP-1, P08833 26-259 (protein, UniProt P08833 26-259, looked up)
chain: T1 sequence (looked up)
In turn, B1 yielded a relative IC50 (IC50mut/IC50 G1S-A70V) in experiment [19] above 100 fold.
